From patent publication US20240010747A1, “ANTI-MRP4 (ENCODED BY ABCC4 GENE) ANTIBODIES AND USES THEREOF” (Kenjockety Biotechnology, Inc., priority 2020, published 2024)
Changes are numbered by the printed parent chain. Blank lines part the entries; values can stand above or below the molecule they belong to.

Experiments:
human ABCC4 = molecular target: T1, human ABCC4 (Homo sapiens, UniProt O15439); experiment: Flow cytometry (FACS) binding to C6 cells stably transfected to express human ABCC4 (different experiment, Table 4); details: for Human ABCC4 binding: C6 cells stably transfected to express human ABCC4, FACS, different experiment, Table 4; for binding to human ABCC4 expressed on cell surface: Table 4 study, stated in words
T1 construct: expressed in transfected cells
T1 sequence (O15439 1-1325): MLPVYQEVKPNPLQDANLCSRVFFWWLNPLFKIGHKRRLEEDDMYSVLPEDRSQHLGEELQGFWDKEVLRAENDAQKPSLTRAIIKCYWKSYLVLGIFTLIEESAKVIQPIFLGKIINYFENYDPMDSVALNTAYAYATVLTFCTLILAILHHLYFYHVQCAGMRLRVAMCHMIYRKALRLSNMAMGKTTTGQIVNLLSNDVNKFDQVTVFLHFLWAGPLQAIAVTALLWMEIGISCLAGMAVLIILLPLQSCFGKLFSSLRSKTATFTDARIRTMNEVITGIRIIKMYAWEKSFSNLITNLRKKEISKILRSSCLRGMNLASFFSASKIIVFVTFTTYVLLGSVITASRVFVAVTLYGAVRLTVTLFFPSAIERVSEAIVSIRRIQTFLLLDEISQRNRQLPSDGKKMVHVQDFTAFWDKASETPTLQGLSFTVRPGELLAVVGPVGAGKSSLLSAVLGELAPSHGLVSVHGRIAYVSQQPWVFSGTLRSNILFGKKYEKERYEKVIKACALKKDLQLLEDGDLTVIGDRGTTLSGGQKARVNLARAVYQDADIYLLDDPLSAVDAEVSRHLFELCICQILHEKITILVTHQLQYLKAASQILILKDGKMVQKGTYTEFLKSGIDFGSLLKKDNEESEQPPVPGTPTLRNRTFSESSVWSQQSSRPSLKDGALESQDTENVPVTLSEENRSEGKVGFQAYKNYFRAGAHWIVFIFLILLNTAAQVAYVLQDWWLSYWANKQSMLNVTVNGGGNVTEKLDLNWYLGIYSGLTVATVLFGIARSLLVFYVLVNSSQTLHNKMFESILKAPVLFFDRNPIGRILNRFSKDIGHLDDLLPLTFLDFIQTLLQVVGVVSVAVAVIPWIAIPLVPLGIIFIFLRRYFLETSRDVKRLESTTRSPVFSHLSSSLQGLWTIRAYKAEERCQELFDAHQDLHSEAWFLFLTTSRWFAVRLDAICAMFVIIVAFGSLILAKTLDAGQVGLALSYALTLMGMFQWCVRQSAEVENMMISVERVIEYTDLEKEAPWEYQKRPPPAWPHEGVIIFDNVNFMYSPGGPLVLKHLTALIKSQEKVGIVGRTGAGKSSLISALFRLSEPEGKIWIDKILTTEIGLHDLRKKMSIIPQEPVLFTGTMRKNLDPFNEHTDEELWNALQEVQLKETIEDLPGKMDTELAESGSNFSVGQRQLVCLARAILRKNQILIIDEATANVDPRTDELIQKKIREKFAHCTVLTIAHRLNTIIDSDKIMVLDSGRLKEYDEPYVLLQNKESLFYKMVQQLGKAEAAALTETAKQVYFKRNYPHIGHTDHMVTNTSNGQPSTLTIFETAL
Experimental: (§1) Binding titration of recombinant antibodies to ABCC4 transfectants was performed by serial dilution of antibodies from about 666 nM. Diluted antibody in flow cytometry buffer was incubated with cells on ice for 30 min. After 2 washes with flow cytometry buffer, bound antibody was detected with PE-labeled F(ab′)2 fragment goat anti-human IgG (Jackson ImmunoResearch) diluted 1:200 in flow cytometry buffer and incubated with cells for 20 min on ice. After 2 washes with flow cytometry buffer fluorescence was measured on an Attune N×T flow cytometer. Data were analyzed with GraphPad Prism 8.0 software to determine EC50's.
(§2) Human embryonic kidney HEK 293T cells and murine C6 (ATCC CCL-107) were transfected with human or cynomolgus ABCC4 cDNA with C-terminal fused FLAG tag in a pMONO-hygro vector with Lipofectamine 3000 (Invitrogen #L3000001). The cells were treated with 0.2 mg/ml and 0.5 mg/ml hygromycin respectively for about 2 weeks while cultivated in DMEM and 10% FBS with 0.2 mg/ml hygromycin and 0.5 mg/ml hygromycin, respectively. The cells were washed with PBS, and stained with […] of anti-FLAG-PE after fixing and permeablization. Clones expressing ABCC4 were single-cell sorted into 200 μl DMEM with 10% FBS using a BD Aria FACS machine and cultivated in 96 well plates using standard techniques in an incubator at 37° C. and 5% CO 2. Two weeks later clones expressing high levels of ABCC4 were screened and amplified.
(§3) Antibody binding to cells was evaluated by flow cytometry. Murine C6 cells stably transfected to express human or cynomolgus ABCC4 were washed once in flow cytometry buffer (PBS+2% FBS+0.02% sodium azide), resuspended at 2×10^6 cells/mL in flow cytometry buffer, and dispensed into 96-well microtiter plates at 0.1 mL/well. Recombinant antibodies were added to cells at 5 ug/mL for initial binding confirmation, or serially diluted from 100 ug/mL in flow cytometry buffer. After incubating cells on ice for 30 min, cells were washed twice with flow cytometry buffer. Bound antibody was detected with PE-labeled F(ab′)2 fragment goat anti-human IgG (Jackson ImmunoResearch) and evaluated on an Attune N×T flow cytometer. EC50 is calculated to be the concentration of antibody that gives half maximal response.
(§4) In a different experiment, using a different C6.cC4 cell line, detecting the binding of anti-ABCC4 antibodies to C6 cells stably transfected to express human ABCC4 measured by FACS and to C6 cells stably transfected to express cynomolgus ABCC4 measured by FACS, the results set forth in Table 4 were obtained. Negative (−)=Rmax (MFI) below background level. Positive (+)=MFI>3× background level.

cynomolgus ABCC4 = experiment: Flow cytometry (FACS) binding to C6 cells stably transfected to express cynomolgus ABCC4 (different experiment, different C6.cC4 cell line, Table 4); set-up: key to Cynomolgus ABCC4 binding: Negative (−)=Rmax (MFI) below background level; Positive (+)=MFI>3× background level; details: for binding to cynomolgus ABCC4 expressed on cell surface: Table 4 study, stated in words; for Cynomolgus ABCC4 binding: different C6.cC4 cell line, C6 cells stably transfected to express cynomolgus ABCC4, FACS, Table 4
Experimental: as §1, §2, §3, §4

- Human ABCC4 binding (human ABCC4): + (Positive (+)=MFI>3× background level)
- binding to human ABCC4 expressed on cell surface (human ABCC4): bind to both human and cynomolgus ABCC4
B2: C4.1069: anti-ABCC4 antibody raised in rats; VH SEQ ID NO: 22, VL SEQ ID NO: 144 (antibody, V domains shown)
VH: GLVQPSQTLSLTCTVSGFSLNSNGVSWVRQPPGKGLEWIVEISSGGSAFYNSALKSRLSISRDTSKSQVFLKMNSLQTEDTAIYFCTRGGTEDPDYFDYWGQGASVTVSS
VL: DIVLTQSPSSLAVSAGETVTINCKSSQSLLYSGNQKNYLAWYQQTPGQSPKLLIYWASTRQSGVPDRFIGSGSGTDFILTITSVQAEDLAIYYCQQYYDTPVTFGSGTKLELK
- binding to cynomolgus ABCC4 expressed on cell surface (cynomolgus ABCC4): bind to both human and cynomolgus ABCC4
- Cynomolgus ABCC4 binding (cynomolgus ABCC4): + (Positive (+)=MFI>3× background level)

- Human ABCC4 binding (human ABCC4): + (Positive (+)=MFI>3× background level)
- binding to human ABCC4 expressed on cell surface (human ABCC4): bind to both human and cynomolgus ABCC4
B5: C4.1143: anti-ABCC4 antibody raised in rats; VH SEQ ID NO: 31, VL SEQ ID NO: 148 (antibody, V domains shown)
VH: EVQLVESDGGLLQPGRSLKLSCAASGFTFSDFYMAWVRQAPTKGLEWIATISHDGRNTYYRDSVKGRFTISRDNAKRTLYLEMDSLRSEDTATYYCATLTTRYKGVMEAWGQGASVTVSS
VL: DVVMTQSPSHLAASPGESVSINCKASKNIYKYLAWYQQKPGKTNKLLIYSGSTLQSGTPSRFSGSGSGSDFTLTIRNLEPEDFGLYYCQHHNEYPPTFGGGTKLEIK
- binding to cynomolgus ABCC4 expressed on cell surface (cynomolgus ABCC4): bind to both human and cynomolgus ABCC4
- Cynomolgus ABCC4 binding (cynomolgus ABCC4): + (Positive (+)=MFI>3× background level)

- Human ABCC4 binding (human ABCC4): + (Positive (+)=MFI>3× background level)
B8: C4.956: anti-ABCC4 antibody raised in rats; VH SEQ ID NO: 7, VL SEQ ID NO: 127 (antibody, V domains shown)
VH: QLKESGPGLVKPSQSLSLTCSVTGYTITSGYDWTWLRKFPGNKMEWMGYISYSGFTNYNPSLRSRISITRDTSKNQFFLQLNSVTAEDTATYFCTRTRGYNPFPYWGQGTLVTVSS
VL: AIQVTQSPTSLSASLGDRVTLTCRASQDINNKMAWYQQKPGEVPQLLIYYASTLQSGTPSRFSGSGSGTDFSFTISHLQSEDFATYYCLQGYSLYTFGAGTKLELK
- Cynomolgus ABCC4 binding (cynomolgus ABCC4): −

The next lines start with the molecule.

B1: C4.1075: anti-ABCC4 antibody raised in rats; VH SEQ ID NO: 25, VL SEQ ID NO: 141 (antibody, V domains shown)
VH: EVQLKESGPGLVQPSQTLSLTCTVSGLSLISSNINWVRQPPGKGLEWIGAISSGGSAFYNSALKSRLTSSRDTSKSQVFLKMNSLQTEDTAIYFCARGGSEDPDYFDYWGQGVMVTVSS
VL: B2 VL with L4M, T45K, A57S, I69M, I78T, T82S, V102L, L112I
- Human ABCC4 binding (human ABCC4): + (Positive (+)=MFI>3× background level)
- binding to human ABCC4 expressed on cell surface (human ABCC4): bind to both human and cynomolgus ABCC4
- binding to cynomolgus ABCC4 expressed on cell surface (cynomolgus ABCC4): bind to both human and cynomolgus ABCC4
- Cynomolgus ABCC4 binding (cynomolgus ABCC4): + (Positive (+)=MFI>3× background level)

B3: C4.1073: anti-ABCC4 antibody raised in rats; VH SEQ ID NO: 24, VL SEQ ID NO: 146 (antibody, V domains shown)
VH: EVQMKESGPGLVQPSQTLSLTCTVSGFSLTSYHVHWVRQPPGKGLEWMGVMWSDGDTSYNSALKSRLSINRDTSQSRVFLKMNSLQTEDTSTYYCARDRDVLYYDGDFSPFVMDAWGQGASVTVSS
VL: DIQMTQSPSNLAASPGESVSINCKASKSISKFLAWYQQKSGKANKLLIYSASTLQSGTPSRFSGSGSGTDFTLTIRNLEPEDFGLYYCQQHNEYPLTFGSGTKLEIK
- Human ABCC4 binding (human ABCC4): + (Positive (+)=MFI>3× background level)
- binding to human ABCC4 expressed on cell surface (human ABCC4): bind to both human and cynomolgus ABCC4
- binding to cynomolgus ABCC4 expressed on cell surface (cynomolgus ABCC4): bind to both human and cynomolgus ABCC4
- Cynomolgus ABCC4 binding (cynomolgus ABCC4): + (Positive (+)=MFI>3× background level)

B4: C4.970: anti-ABCC4 antibody raised in rats; VH SEQ ID NO: 10, VL SEQ ID NO: 131 (antibody, V domains shown)
VH: EVQLVESGPGLVQPSQTLSLTCTVAGFSLTSYNVHWVRQPPGKGLEWMGVIWNTGDTRYDSALKSRLSISKDTSKSQVFLNMNSLQTEDTATYYCARDDNVYYGMHAMDAWGQGASVTVSS
VL: DIKMIQSPSSLSASLGERVTISCRASENINNYLSWYQKKEDGSVKLLIYHTSRLQPGAPSRFSGSGSGKDYSLTISGLDSEDIATYYCQQGYTPPTFGAGTKLELK
- Human ABCC4 binding (human ABCC4): + (Positive (+)=MFI>3× background level)
- Cynomolgus ABCC4 binding (cynomolgus ABCC4): −

B6: C4.1164: anti-ABCC4 antibody raised in rats; VH SEQ ID NO: 36, VL SEQ ID NO: 153 (antibody, V domains shown)
VH: EVQLVESDGGLVQPGRSLKLSCAASGFTFSDYYMAWVRQAPTKGLYWVASISYDGSTTYYRDSVKGRFTISRDNAKSTLYLQMGSLRSEDTATYYCARLSIRYKGVMDAWGRGASVTVS
VL: DIQMTQSPSNLAASPGESVSINCKASETIYKYLAWYQQKPGRTNKLLIYSGSTLQSGTPSRFSGSGSGTDFTLTIRNLEPEDFGRYYCQHHVEYPPTFGAGTKLELK
- Human ABCC4 binding (human ABCC4): + (Positive (+)=MFI>3× background level)
- binding to human ABCC4 expressed on cell surface (human ABCC4): bind to both human and cynomolgus ABCC4
- binding to cynomolgus ABCC4 expressed on cell surface (cynomolgus ABCC4): bind to both human and cynomolgus ABCC4
- Cynomolgus ABCC4 binding (cynomolgus ABCC4): + (Positive (+)=MFI>3× background level)

B7: C4.957: anti-ABCC4 antibody raised in rats; VH SEQ ID NO: 8, VL SEQ ID NO: 127 (antibody, V domains shown)
VH: EVQLKESGPGLVQPSQTLSLTCTVSGFSLTNYGVSWVRQPPGKGLEWIGAIWSGGSTGYNSALKSRLSISRDTSKSQVLLKMNSLQTEDTAMYFCARSGVEGPPFDYWGQGASVTVSS
VL: B8 VL
- Human ABCC4 binding (human ABCC4): + (Positive (+)=MFI>3× background level)
- binding to human ABCC4 expressed on cell surface (human ABCC4): bind to both human and cynomolgus ABCC4
- binding to cynomolgus ABCC4 expressed on cell surface (cynomolgus ABCC4): bind to both human and cynomolgus ABCC4
- Cynomolgus ABCC4 binding (cynomolgus ABCC4): + (Positive (+)=MFI>3× background level)
